Assays:
[1] = target: T1, human TLR4 (human, UniProt O00206 24-839); assay: HEK-hTLR4 cells, IL-8 ELISA; binding inferred from activation
T1 construct: whole, on cells; also called hTLR4; Toll-like receptor 4

[2] = target: T2, human TLR2 (human, UniProt O60603 21-784); assay: HEK-Blue hTLR2 cells, NF-κB/AP1 reporter and IL-8 ELISA; binding inferred from activation
T2 construct: whole, on cells; Expressed on the HEK-Blue hTLR2 reporter cell line; also called hTLR2; Toll-like receptor 2
T2 sequence (O60603 21-784): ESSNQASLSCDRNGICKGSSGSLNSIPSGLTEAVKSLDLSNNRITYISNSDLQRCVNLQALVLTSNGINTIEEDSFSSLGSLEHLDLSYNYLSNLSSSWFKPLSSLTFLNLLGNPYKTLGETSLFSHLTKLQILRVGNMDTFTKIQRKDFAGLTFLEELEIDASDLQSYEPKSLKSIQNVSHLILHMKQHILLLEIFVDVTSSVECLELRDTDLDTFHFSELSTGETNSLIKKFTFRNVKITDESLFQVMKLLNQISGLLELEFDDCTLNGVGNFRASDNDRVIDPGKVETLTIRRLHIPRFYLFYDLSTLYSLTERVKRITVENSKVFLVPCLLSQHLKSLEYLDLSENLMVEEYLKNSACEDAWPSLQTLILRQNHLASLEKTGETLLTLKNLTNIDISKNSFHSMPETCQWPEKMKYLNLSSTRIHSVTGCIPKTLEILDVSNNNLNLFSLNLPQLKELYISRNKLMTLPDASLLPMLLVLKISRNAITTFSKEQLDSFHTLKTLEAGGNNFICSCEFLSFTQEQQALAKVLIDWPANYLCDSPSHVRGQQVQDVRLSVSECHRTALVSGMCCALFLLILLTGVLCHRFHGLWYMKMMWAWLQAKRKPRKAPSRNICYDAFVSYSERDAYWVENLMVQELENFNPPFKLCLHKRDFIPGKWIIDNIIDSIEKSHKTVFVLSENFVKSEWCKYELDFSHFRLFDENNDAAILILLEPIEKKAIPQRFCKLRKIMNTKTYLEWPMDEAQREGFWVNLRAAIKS

T1 sequence (O00206 24-839): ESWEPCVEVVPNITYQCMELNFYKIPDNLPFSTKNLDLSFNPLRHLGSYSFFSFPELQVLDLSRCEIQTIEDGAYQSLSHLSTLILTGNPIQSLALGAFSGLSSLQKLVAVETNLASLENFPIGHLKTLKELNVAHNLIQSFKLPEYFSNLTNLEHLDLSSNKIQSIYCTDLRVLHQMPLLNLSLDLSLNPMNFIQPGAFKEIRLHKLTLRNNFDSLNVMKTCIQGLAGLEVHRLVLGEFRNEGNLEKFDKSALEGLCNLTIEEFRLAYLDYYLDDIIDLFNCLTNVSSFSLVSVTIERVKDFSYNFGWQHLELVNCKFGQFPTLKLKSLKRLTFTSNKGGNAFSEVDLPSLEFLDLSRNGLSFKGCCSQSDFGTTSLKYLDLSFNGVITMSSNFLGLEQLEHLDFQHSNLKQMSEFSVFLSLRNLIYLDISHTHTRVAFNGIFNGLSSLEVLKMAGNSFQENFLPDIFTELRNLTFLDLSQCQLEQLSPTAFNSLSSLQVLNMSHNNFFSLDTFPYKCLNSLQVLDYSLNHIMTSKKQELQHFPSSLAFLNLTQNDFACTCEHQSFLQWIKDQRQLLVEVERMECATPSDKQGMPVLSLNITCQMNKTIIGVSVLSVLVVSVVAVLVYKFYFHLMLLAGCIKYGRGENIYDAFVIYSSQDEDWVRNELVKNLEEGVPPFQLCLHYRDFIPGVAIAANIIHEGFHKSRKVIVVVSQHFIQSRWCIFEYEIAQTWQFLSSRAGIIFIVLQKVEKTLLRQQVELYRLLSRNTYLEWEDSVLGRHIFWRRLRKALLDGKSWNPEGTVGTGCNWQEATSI

Binder	binding result [1]	binding result [2]
EDAZ13Mad5 (other, Recombinant fusion protein; 25057 Da; also called fusion protein of TLR4 peptide agonist EDA, cell-penetrating peptide Z13 and MAD5 cargo) MHHHHHHNIDRPKGLAFTDVDVDSIKIAWESPQGQVSRYRVTYSSPEDGIRELFPAPDGEDDTAELQGLRPGSEYTVSVVALHDDMESQPLIGIQSTKRYKNRVASRKSRAKFKQLLQHYREVAAAKSSENDRLRLLLKESLKISQAVHAAHAEINEAGREVVGVGALKVPRNQDWLGVPRFAKFASFEAQGALANIAVDKANLDVEQLESIINFEKLTEWTGS	binds	
Z13Mad5Anaxa (other, Recombinant fusion protein; 18973 Da; also called fusion protein of cell-penetrating peptide Z13, MAD5 cargo and TLR peptide agonist Anaxa (C-terminal)) MHHHHHHKRYKNRVASRKSRAKFKQLLQHYREVAAAKSSENDRLRLLLKESLKISQAVHAAHAEINEAGREVVGVGALKVPRNQDWLGVPRFAKFASFEAQGALANIAVDKANLDVEQLESIINFEKLTEWTGSSTVHEILCKLSLEGDHSTPPSAYGSVKPYTNFDAE	binds	binds
AnaxaZ13Mad5 (other, Recombinant fusion protein; 18973 Da; also called AnaxZ13Mad5) MHHHHHHSTVHEILCKLSLEGDHSTPPSAYGSVKPYTNFDAEKRYKNRVASRKSRAKFKQLLQHYREVAAAKSSENDRLRLLLKESLKISQAVHAAHAEINEAGREVVGVGALKVPRNQDWLGVPRFAKFASFEAQGALANIAVDKANLDVEQLESIINFEKLTEWTGS		binds

From patent US20180133295A1 (AMAL THERAPEUTICS, published 2018)
